{"source": "patent US11059864B2", "about": "“Chimeric antigen receptor (CAR) modulation” (TRUSTEES OF BOSTON UNIVERSITY, priority 2019, dated 2021)", "key": {"[1]": {"tested_on": "Her2-expressing NALM cells", "assay": "Cell killing by Her2-specific NS3 CAR CD8+ T cells", "assay_type": "cell-based, human", "experimental": "FIG. 3A-3B is a series of graphs. FIG. 3A is a bar graph showing the killing efficiency of CD8+ T cells following expression of the NS3 CAR constructs or traditional CAR, in the presence or absence of GZV.\nTo further evaluate the downstream effector function of NS3 CAR T cells, their cell killing abilities were tested. Her2-specific NS3 CAR CD8+ T cells were mixed with Her2-expressing NALM cells at a 1:1 ratio and the extent of cell killing determined.\nBy varying the dose of NS3 inhibitor, the level of CD8+ T cell-mediated killing could be modulated."}, "NFAT": {"tested_on": "NFAT", "assay": "NS3 OFF CAR: NFAT-GFP levels in Jurkat T cells (components on separate vectors)", "assay_type": "cell-based", "details": "Jurkat T cells expressing two-component OFF-switch; presence of grazoprevir", "experimental": "(§1) FIG. 8A-8D is a series of schematics and graphs showing testing of variations of the NS3 OFF CAR in Jurkat T cells. […] Combinations of components were tested as indicated. Each was introduced on a separate vector.\nNS3 CAR OFF switches, comprising first and second components, were constructed as described herein. The first component comprises a peptide, which is specific for the NS3 of the second component, thus bringing the two components together.\n(§2) Two different versions of the first component (c and d) and four different versions of the second component of the OFF-switch (i, ii, iii, and iv) were tested in Jurkat T cells. […] The OFF-switch CARs can also function when expressed in a single vector (see e.g., FIG. 9A-9C, FIG. 10A-10D)."}, "Jurkat T cells": {"tested_on": "Jurkat T cells", "assay": "NS3 OFF CAR: CD69 levels in Jurkat cells (components on separate vectors)", "assay_type": "cell-based", "details": "Jurkat cells expressing OFF-switch components; presence of grazoprevir", "experimental": "as §1, §2"}, "NS3a-genotype 1b": {"target": "NS3a-genotype 1b (Hepatitis C virus genotype 1b, UniProt P26662, S1165A)", "sequence (P26662 1029-1207 D1056E/L1062V/P1112Q/M1120L/V1140I/I1158V/S1165A/V1176A/I1196V)": "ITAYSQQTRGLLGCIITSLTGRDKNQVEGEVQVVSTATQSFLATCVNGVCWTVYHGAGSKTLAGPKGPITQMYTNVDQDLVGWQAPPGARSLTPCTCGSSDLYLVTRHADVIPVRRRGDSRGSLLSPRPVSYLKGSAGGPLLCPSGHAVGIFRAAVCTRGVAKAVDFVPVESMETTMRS", "details": "read-out: affinity of basal complex with NS3a-genotype 1b; cited from earlier work"}, "NS3a/danoprevir complex": {"target": "T1, NS3a/danoprevir complex (Hepatitis C virus genotype 1a, UniProt P27958)", "T1 construct": "comprise the N-terminal 180 amino acids of the NS3 protein", "T1 sequence (P27958 1027-1208, one chain of several)": "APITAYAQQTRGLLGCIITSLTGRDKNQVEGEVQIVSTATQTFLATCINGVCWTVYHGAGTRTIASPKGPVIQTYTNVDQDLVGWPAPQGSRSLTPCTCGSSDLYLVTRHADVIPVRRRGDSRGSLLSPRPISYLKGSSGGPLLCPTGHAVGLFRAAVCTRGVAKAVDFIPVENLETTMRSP", "details": "cited from earlier work"}, "asunaprevir-bound NS3a": {"target": "T2, asunaprevir-bound NS3a (Hepatitis C virus genotype 1a, UniProt P27958)", "T2 construct": "comprise the N-terminal 180 amino acids of the NS3 protein", "T2 sequence (P27958 1027-1208)": "as the sequence (P27958 1027-1208, one chain of several) above", "details": "cited from earlier work"}, "apo NS3a": {"target": "T3, apo NS3a (Hepatitis C virus genotype 1a, UniProt P27958)", "T3 construct": "comprise the N-terminal 180 amino acids of the NS3 protein", "T3 sequence (P27958 1027-1208)": "as the sequence (P27958 1027-1208, one chain of several) above", "details": "cited from earlier work"}, "grazoprevir/NS3a complex": {"target": "grazoprevir/NS3a complex", "sequence (P27958 1027-1208, one chain of several)": "as above", "details": "cited from earlier work"}, "Her2+ target NALM cells [2]": {"tested_on": "Her2+ target NALM cells", "assay": "CD69 expression in CD4+ and CD8+ primary T cells expressing NS3 CARs mixed with target cells", "assay_type": "cell-based", "details": "human CD4+ and CD8+ primary T cells; presence or absence of grazoprevir and/or Her2+ target NALM cells", "description": "(§3) FIG. 2A-2B is a series of bar graphs. FIG. 2A is a series of bar graphs showing CD69 expression in CD4+ and CD8+ T cells following expression of the NS3 CAR constructs or traditional CAR, in the presence or absence of GZV (Grazoprevir) and/or target cell. FIG. 2B is a series of bar graphs showing CD4+ and CD8+ T cell IL-2 and IFN-gamma cytokine release following expression the NS3 CAR constructs or traditional CAR, in the presence or absence of GZV and/or target cell.\n(§4) These CARs were introduced into human CD4+ and CD8+ primary T cells and tested for functionality by mixing with Her2+ target NALM cells. As a readout for NS3 CAR control over T cell activity, levels of CD69 (an early T cell activation marker) and cytokine release (indicative of downstream effector function) were measured. It is expected that in the absence of grazoprevir (an NS3 inhibitor), the CAR is dismantled, rendering it non-functional. Once grazoprevir is added, the full CAR is assembled, thus allowing the T cell to activate when Her2-expressing target cells are present (see e.g., FIG. 1B)."}, "Her2+ target NALM cells [3]": {"tested_on": "Her2+ target NALM cells", "assay": "IL-2 and IFN-gamma cytokine release by CD4+ and CD8+ primary T cells expressing NS3 CARs", "assay_type": "cell-based", "details": "human CD4+ and CD8+ primary T cells; presence or absence of grazoprevir and/or Her2+ target NALM cells", "description": "as §3, §4"}}}
{"molecule": "C=C[C@@H]1C[C@]1(NC(=O)[C@@H]1C[C@@H]2CN1C(=O)[C@H](C(C)(C)C)NC(=O)O[C@@H]1C[C@H]1CCCCCc1nc3ccc(OC)cc3nc1O2)C(=O)NS(=O)(=O)C1CC1", "note": "[grazoprevir]", "values": [{"measurement": "cell killing ability versus level of NS3 inhibitor", "setting": "[1]; CD8+ T cells expressing the V2 NS3 CAR, 1:1 ratio, NS3 inhibitor varied between 0 uM-5 uM", "value": "can be used to regulate the level of killing efficiency"}, {"measurement": "killing efficiency versus concentration of Grazoprevir", "setting": "[1]; traditional CAR T cells or wild-type cells", "value": "does not impact traditional CAR T cells or wild-type cells"}, {"measurement": "NFAT-GFP levels", "setting": "NFAT", "value": "diminished to baseline"}, {"measurement": "CD69 levels", "setting": "Jurkat T cells", "value": "diminished to baseline"}]}
{"molecule": "apo NS3a reader peptide GELDELVYLLDGPGYDPIHSD, SEQ ID NO: 204 [ANR]", "values": [{"measurement": "Kd", "setting": "NS3a-genotype 1b", "value": 10, "unit": "nM"}]}
{"molecule": "GNCR1: grazoprevir/NS3 complex reader domain, SEQ ID NO: 105, 233 aa (protein) DIEKLCKKAEEEAKEAQEKADELRQRHPDSQAAEDAEDLANLAVAAVLTACLLAQEHPNADIAKLCIKAASEAAEAASKAAELAQRHPDSQAARDAIKLASQAARAVILAIMLAAENPNADIAKLCIKAASEAAEAASKAAELAQRHPDSQAARDAIKLASQAAEAVERAIWLAAENPNADIAKKCIKAASEAAEEASKAAEEAQRHPDSQKARDEIKEASQKAEEVKERCKS", "values": [{"measurement": "binding of NS3 in the presence of danoprevir (danoprevir-bound NS3a)", "setting": "NS3a/danoprevir complex", "value": "little to no affinity"}, {"measurement": "binding of NS3 in the presence of asunaprevir (asunaprevir-bound NS3a)", "setting": "asunaprevir-bound NS3a", "value": "little to no affinity"}, {"measurement": "binding to apo NS3a", "setting": "apo NS3a", "value": "little to no affinity"}, {"measurement": "Kd", "setting": "grazoprevir/NS3a complex; read-out: affinity for the grazoprevir/NS3a complex", "value": 140, "unit": "nM"}]}
{"molecule": "G5: reader domain, SEQ ID NO: 208 (named G3 in the sequence listing), 233 aa (protein) DIEKLCKKAEEEAKEAQEKADELRQRHPDSQAAEDAEDLANEAEAAVLAACSLAQEHPNADIAKLCIKAASEAAEAASKAAELAQRHPDSQAARDAIKLASQAARAVILAIMLAAENPNADIAKLCIKAASEAAEAASKAAELAQRHPDSQAARDAIKLASQAAEAVERAIWLAAENPNADIAKKCIKAASEAAEEASKAAEEAQRHPDSQKARDEIKEASQKAEEVKERCKS", "values": [{"measurement": "binding of NS3 in the presence of danoprevir (danoprevir-bound NS3a)", "setting": "NS3a/danoprevir complex", "value": "no binding"}, {"measurement": "binding of NS3 in the presence of asunaprevir (asunaprevir-bound NS3a)", "setting": "asunaprevir-bound NS3a", "value": "some binding"}, {"measurement": "binding of NS3 in the presence of grazoprevir", "setting": "grazoprevir/NS3a complex", "value": "moderate binding"}]}
{"molecule": "D5: reader domain, SEQ ID NO: 206, 229 aa (protein) SSDEEEARELIERAKEAAERAQEAAERTGDPRVRELARELKRLAQEAAEEVKRDPSSSDVNEALKLIVEAIEAAVDALEAAERTGDPEVRELARELVRLAVEAAEEVQRNPSSSDVNEALLTIVIAIEAAVNALEAAERTGDPEVRELARELVRLAVEAAEEVQRNPSSREVNIALWKIVLAIQEAVESLREAEESGDPEKREKARERVREAVERAEEVQRDPSGWLNH", "values": [{"measurement": "binding of NS3 in the presence of danoprevir (danoprevir-bound NS3a)", "setting": "NS3a/danoprevir complex", "value": "moderate binding"}, {"measurement": "binding of NS3 in the presence of asunaprevir (asunaprevir-bound NS3a)", "setting": "asunaprevir-bound NS3a", "value": "some binding"}, {"measurement": "binding of NS3 in the presence of grazoprevir", "setting": "grazoprevir/NS3a complex", "value": "moderate binding"}]}
{"molecule": "DNCR2: danoprevir/NS3 complex reader domain, SEQ ID NO: 101, 229 aa (protein) SSDEEEARELIERAKEAAERAQEAAERTGDPRVRELARELKRLAQEAAEEVKRDPSSSDVNEALKLIVEAIEAAVDALEAAERTGDPEVRELARELVRLAVEAAEEVQRNPSSSDVNEALHSIVYAIEAAIFALEAAERTGDPEVRELARELVRLAVEAAEEVQRNPSSRNVEHALMRIVLAIYLAEENLREAEESGDPEKREKARERVREAVERAEEVQRDPSGWLNH", "values": [{"measurement": "selectivity over NS3a bound to the drugs grazoprevir or asunaprevir", "setting": "NS3a/danoprevir complex", "value": "> 20,000 fold"}, {"measurement": "Kd", "setting": "NS3a/danoprevir complex; read-out: affinity for the NS3a/danoprevir complex", "value": 0.036, "unit": "nM"}, {"measurement": "binding to apo NS3a", "setting": "apo NS3a", "value": "no detectable binding"}]}
{"molecule": "DNCR1: danoprevir/NS3 complex reader domain, SEQ ID NO: 207, 229 aa (protein) SSDEEEARELIERAKEAAERAQEAAERTGDPRVRELARELKRLAQEAAEEVKRDPSSSDVNEALKLIVEAIEAAVDALEAAERTGDPEVRELARELVRLAVEAAEEVQRNPSSSDVNEALLSIVIAIEAAVHALEAAERTGDPEVRELARELVRLAVEAAEEVQRNPSSREVEHALMKIVLAIYEAEESLREAEESGDPEKREKARERVREAVERAEEVQRDPSGWLNH", "values": [{"measurement": "binding of NS3 in the presence of danoprevir (danoprevir-bound NS3a)", "setting": "NS3a/danoprevir complex", "value": "high binding"}, {"measurement": "binding of NS3 in the presence of asunaprevir (asunaprevir-bound NS3a)", "setting": "asunaprevir-bound NS3a", "value": "minimal binding"}, {"measurement": "binding of NS3 in the presence of grazoprevir", "setting": "grazoprevir/NS3a complex", "value": "minimal binding"}]}
{"molecule": "Traditional CAR: traditional third-generation Her2 CAR without NS3; SEQ ID NO: 4, 37 (protein) ALPVTALLLPLALLLHAARPKYLLPTAAAGLLLLAAQPAMAQVQLVQSGAEVKKPGESLKISCKGSGYSFTSYWIAWVRQMPGKGLEYMGLIYPGDSDTKYSPSFQGQVTISVDKSVSTAYLQWSSLKPSDSAVYFCARHDVGYCTDRTCAKWPEYFQHWGQGTLVTVSSGGGGSGGGGSGGGGSQSVLTQPPSVSAAPGQKVTISCSGSSSNIGNNYVSWYQQLPGTAPKLLIYDHTNRPAGVPDRFSGSKSGTSASLAISGFRSEDEADYYCASWDYTLSGWVFGGGTKLTVLGGKPIPNPLLGLDSTNGAATTTPAPRPPTPAPTIALQPLSLRPEACRPAAGGAVHTRGLDFACDFWVLVVVGGVLACYSLLVTVAFIIFWVRSKRSRLLHSDYMNMTPRRPGPTRKHYQPYAPPRDFAAYRSKRGRKKLLYIFKQPFMRPVQTTQEEDGCSCRFPEEEEGGCELRVKFSRSADAPAYKQGQNQLYNELNLGRREEYDVLDKRRGRDPEMGGKPRRKNPQEGLYNELQKDKMAEAYSEIGMKGERRRGKGHDGLYQGLSTATKDTYDALHMQALPPR", "values": [{"measurement": "CD69 expression", "setting": "Her2+ target NALM cells [2]", "value": "no response to the NS3 inhibitor"}, {"measurement": "IL-2 and IFN-gamma cytokine release", "setting": "Her2+ target NALM cells [3]", "value": "no response to the NS3 inhibitor"}]}
